Substrate: COC1=C(OC)C(=O)C(C/C=C(\C)CC/C=C(\C)CC/C=C(\C)CC/C=C(\C)CC/C=C(\C)CC/C=C(\C)CC/C=C(\C)CC/C=C(\C)CC/C=C(\C)CCC=C(C)C)=C(C)C1=O
Assay: NADH:O2 oxidoreduction in Q10 proteoliposomes, Michaelis-Menten fit
Assay type: biochemical, Bos taurus
Details: 200 μM NADH, 15 μg/mL alamethicin, 10 mM Tris-SO4 pH 7.5, 50 mM KCl, 32 °C, excess AOX reoxidizes Q10H2, membrane-phase concentration, stated as approximately 3.9 mM Q10 in the membrane phase

B1: complex I (NADH:ubiquinone oxidoreductase, CI) (Bos taurus) (protein)
chain 1: ARQWQPDVEWAEQYGGAVMYPTKETAHWKPPPWNDVDPPKDTLVSNLTLNFGPQHPAAHGVLRLVMELSGEMVRKCDPHIGLLHRGTEKLIEYKTYLQALPYFDRLDYVSMMCNEQAYSLAVEKLLNIQPPPRAQWIRVLFGEITRLLNHIMAVTTHALDIGAMTPFFWMFEEREKMFEFYERVSGARMHAAYVRPGGVHQDLPLGLMDDIYEFSKNFSLRIDELEEMLTNNRIWRNRTVDIGIVTAEDALNYGFSGVMLRGSGIQWDLRKTQPYDVYDQVEFDVPIGSRGDCYDRYLCRVEEMRQSIRIISQCLNKMPPGEIKVDDAKVSPPKRAEMKTSMESLIHHFKLYTEGYQVPPGATYTAIEAPKGEFGVYLVSDGSSRPYRCKIKAPGFAHLAGLDKMSKGHMLADVVAIIGTQDIVFGEVDR
chain 2: not shown
chain 3: not shown
notes: native complex purified from heart mitochondria, detergent-solubilized, reconstituted into proteoliposomes with Q10 and AOX; with NADH dehydrogenase [ubiquinone] flavoprotein 1, mitochondrial; NADH dehydrogenase [ubiquinone] flavoprotein 2, mitochondrial; NADH-ubiquinone oxidoreductase 75 kDa subunit, mitochondrial; NADH dehydrogenase [ubiquinone] iron-sulfur protein 3, mitochondrial; NADH …
With B1 the kcat was 500 s⁻¹.

Reference: article PMC4954055, “A Self‐Assembled Respiratory Chain that Catalyzes NADH Oxidation by Ubiquinone‐10 Cycling between Complex I and the Alternative Oxidase” (Angewandte Chemie (International Ed. in English), 2015)
